Laboratory results published in US20220372164A1 (CITY OF HOPE, published 2022).

B1: biotinylated soluble murine FcγR1 (receptor, UniProt P26151 25-297, looked up)
chain: EVVNATKAVITLQPPWVSIFQKENVTLWCEGPHLPGDSSTQWFINGTAVQISTPSYSIPEASFQDSGEYRCQIGSSMPSDPVQLQIHNDWLLLQASRRVLTEGEPLALRCHGWKNKLVYNVVFYRNGKSFQFSSDSEVAILKTNLSHSGIYHCSGTGRHRYTSAGVSITVKELFTTPVLRASVSSPFPEGSLVTLNCETNLLLQRPGLQLHFSFYVGSKILEYRNTSSEYHIARAEREDAGFYWCEVATEDSSVLKRSPELELQVLGPQSSAP
modifications: biotinylated
notes: Bought reagent; also called muFcγR1; Mu FcγR1
B2: biotinylated soluble human Fc gamma receptor 1 (receptor, UniProt P12314 16-288, looked up)
chain: QVDTTKAVITLQPPWVSVFQEETVTLHCEVLHLPGSSSTQWFLNGTATQTSTPSYRITSASVNDSGEYRCQRGLSGRSDPIQLEIHRGWLLLQVSSRVFTEGEPLALRCHAWKDKLVYNVLYYRNGKAFKFFHWNSNLTILKTNISHNGTYHCSGMGKHRYTSAGISVTVKELFPAPVLNASVTSPLLEGNLVTLSCETKLLLQRPGLQLYFSFYMGSKTLRGRNTSSEYQILTARREDSGLYWCEAATEDGNVLKRSPELELQVLGLQLPTP
modifications: biotinylated
notes: Bought reagent; also called huFcγR1; human FcγR1
B3: biotinylated soluble human FcγR2b (receptor, UniProt P31994 43-217, looked up)
chain: TPAAPPKAVLKLEPQWINVLQEDSVTLTCRGTHSPESDSIQWFHNGNLIPTHTQPSYRFKANNNDSGEYTCQTGQTSLSDPVHLTVLSEWLVLQTPHLEFQEGETIVLRCHSWKDKPLVKVTFFQNGKSKKFSRSDPNFSIPQANHSHSGDYHCTGNIGYTLYSSKPVTITVQAP
modifications: biotinylated
notes: Bought reagent; also called huFcγR2b; Hu R2b
B4: biotinylated soluble human FcγR2a (receptor, UniProt P12318 34-218, looked up)
chain: QAAAPPKAVLKLEPPWINVLQEDSVTLTCQGARSPESDSIQWFHNGNLIPTHTQPSYRFKANNNDSGEYTCQTGQTSLSDPVHLTVLSEWLVLQTPHLEFQEGETIMLRCHSWKDKPLVKVTFFQNGKSQKFSHLDPTFSIPQANHSHSGDYHCTGNIGYTLFSSKPVTITVQVPSMGSSSPMGI
modifications: biotinylated
notes: Bought reagent; also called huFcγR2a; Hu R2a
B5: biotinylated soluble murine FcγR2b (receptor, UniProt P08101 30-207, looked up)
chain: THDLPKAVVKLEPPWIQVLKEDTVTLTCEGTHNPGNSSTQWFHNGRSIRSQVQASYTFKATVNDSGEYRCQMEQTRLSDPVDLGVISDWLLLQTPQLVFLEGETITLRCHSWRNKLLNRISFFHNEKSVRYHHYSSNFSIPKANHSHSGDYYCKGSLGRTLHQSKPVTITVQGPKSSR
modifications: biotinylated
notes: Bought reagent; also called muFcγR2b; Mu R2b

Experiments:
truncated EGFR (EGFRt) [1] = target: T1, truncated EGFR (EGFRt) (human, UniProt P00533 334-668); assay: flow cytometry, biotinylated soluble FcγR + SA-PE on T cells
T1 construct: Expressed alone on T cells as the control without a CAR; also called huEGFRt; EGFRt marker
Method: Antibodies and Flow Cytometry. Fluorochrome-conjugated isotype controls, anti-CD3, anti-CD4, anti-CD8, anti-CD45 and streptavidin were obtained from BD Biosciences (San Jose, Calif.). Biotinylated anti-Fc was purchased from Jackson ImmunoResearch Laboratories, Inc. (West Grove, Pa.). Generation of biotinylated-cetuximab was previously described (Wang et al. 2011a). […] The percentage of immunofluorescent cells were analyzed by a FACScalibur system (BD Biosciences), and the percentage of cells in a region of analysis were calculated using FCS Express V3 (De Novo Software, CA, USA).
To determine the efficacy of the different mutations/deletion in the CAR to affect FcR binding, flow cytometric analysis was performed using various human and murine biotinylated soluble FcγRs, and PE-streptavidin (SA-PE) to detect the binding of the FcγRs to the different cell populations.

truncated EGFR (EGFRt) [2] = target: T1, truncated EGFR (EGFRt); assay: flow cytometry, titration of biotinylated soluble human FcγR1 + SA-PE on T cells

| Binder | binding result (truncated EGFR (EGFRt) [1]) | binding result (truncated EGFR (EGFRt) [2]) |
| --- | --- | --- |
| B1 | no binding |  |
| B2 |  | no binding |
| B3 | no binding |  |
| B4 | no binding |  |
| B5 | no binding |  |
